PMC2903362 (The Journal of Biological Chemistry, 2010)

T1: FlK (fluoroacetyl-CoA thioesterase; WtFlK) (Streptantibioticus cattleyicolor, UniProt Q1EMV2)
T1 sequence (Q1EMV2 1-139): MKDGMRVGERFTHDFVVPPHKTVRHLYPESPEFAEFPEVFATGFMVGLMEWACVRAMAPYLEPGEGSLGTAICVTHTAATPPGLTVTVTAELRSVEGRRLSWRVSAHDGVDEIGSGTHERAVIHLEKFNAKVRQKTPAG


Columns and labels:
[1] = molecular target: T1, FlK (fluoroacetyl-CoA thioesterase; WtFlK); assay: X-ray crystal structure of complex; format: binding; conditions: 10 mM FAcCPan, 100 mM CHES pH 9.5, 0.8 M trisodium citrate; active site
SEC = molecular target: the molecule itself; assay: SEC
crystal structure [2] = molecular target: the molecule itself; assay: crystal structure
crystal structure [3] = molecular target: the molecule itself; assay: crystal structure; remark: listed apart in the source

| Molecule | X-ray crystal structure of complex [1] | stoichiometry N (SEC) | stoichiometry N (crystal structure [2]) | stoichiometry N (crystal structure [3]) |
| --- | --- | --- | --- | --- |
| CC(C)(CO)[C@@H](O)C(=O)NCCC(=O)NCCCC(=O)CF [FAcCPan] | WtFlK in complex with two analogues of fluoroacetyl-pantetheine, FAcCPan, and FAcOPan | – | – | – |
| wild-type FlK (fluoroacetyl-CoA thioesterase FlK) (enzyme, Streptomyces cattleya) MKDGMRVGERFTHDFVVPPHKTVRHLYPESPEFAEFPEVFATGFMVGLMEWACVRAMAPYLEPGEGSLGTAICVTHTAATPPGLTVTVTAELRSVEGRRLSWRVSAHDGVDEIGSGTHERAVIHLEKFNAKVRQKTPAG | – | 2 | 4 | – |
| FlK T42S mutant (enzyme, Streptomyces cattleya) MKDGMRVGERFTHDFVVPPHKTVRHLYPESPEFAEFPEVFASGFMVGLMEWACVRAMAPYLEPGEGSLGTAICVTHTAATPPGLTVTVTAELRSVEGRRLSWRVSAHDGVDEIGSGTHERAVIHLEKFNAKVRQKTPAG | – | 2 | – | 4 |
| selenomethionine-labelled wild-type FlK (enzyme, Streptomyces cattleya, L-selenomethionine incorporated) MKDGMRVGERFTHDFVVPPHKTVRHLYPESPEFAEFPEVFATGFMVGLMEWACVRAMAPYLEPGEGSLGTAICVTHTAATPPGLTVTVTAELRSVEGRRLSWRVSAHDGVDEIGSGTHERAVIHLEKFNAKVRQKTPAG | – | – | – | 2 |
| FlK E50A mutant (enzyme, Streptomyces cattleya) MKDGMRVGERFTHDFVVPPHKTVRHLYPESPEFAEFPEVFATGFMVGLMAWACVRAMAPYLEPGEGSLGTAICVTHTAATPPGLTVTVTAELRSVEGRRLSWRVSAHDGVDEIGSGTHERAVIHLEKFNAKVRQKTPAG | – | 2 | – | – |
| FlK T42A mutant (enzyme, Streptomyces cattleya) MKDGMRVGERFTHDFVVPPHKTVRHLYPESPEFAEFPEVFAAGFMVGLMEWACVRAMAPYLEPGEGSLGTAICVTHTAATPPGLTVTVTAELRSVEGRRLSWRVSAHDGVDEIGSGTHERAVIHLEKFNAKVRQKTPAG | – | 2 | – | 4 |
